Experiment: soluble on expression in E. coli; label from the status in PepcDB or PDB records

Sequence | soluble on expression in E. coli
MLDKNVLNEIGSKVNEILASSPARDVEKNMRAMLTGAFARLDLVTREEFDVQQEVIKRTRIKLAELEEKVRKLEQQLQQPAEVVSSNETGDA | not soluble
MSLAQFVDWDLAAATAGTLGKTGPRVSYVEATAVVGDLRQLTDEAAEHVADFTGLRSQVSHPPVQVVDRRDWAATNVAGLREMIGPLVGRLAGDKQPSVLTEAIGSRITGVQAGTVLAYLSGRVLGQYEVFSGEPGQLLLIAPNIVEVERKLAADPRDFRMWVCLHEVTHRTQFTAVPWLRAYFLGEVQAFVDASSSGGEPLVERLRRGITVLADAVREPAGRTSVLDIVQTPAQKAVLDRLTALMTLLEGHAEFVMDGVGPQVIPSVERIRASFNRRRESGNPLEKALRRLLGVEVKLRQYAEGRSFVHGVVERVGMEGFNRVFASPLTLPRLAELSDPDAWVARVHGPAGPLPAGDEGHHHHHH | soluble
MGHHHHHHSHMKFRAKIVDGACLNHFTRISNMIAKLAKTCTLRISPDKLNFILCDKLANGGVSMWCELEQENFFNEFQMEGVSAENNEIYLELTSENLSRALKTAQNARALKIKLTNKHFPCLTVSVELLSMSSSSRIVTHDIPIKVIPRKLWKDLQEPVVP | not soluble
GPGSMLDFLEQLQQLASVYAICGNAVSVMAGMSDTAEELTFRSYDSLEGASYICNLNEKALHTAKASLCDNADWSSFFREVQLAFNSGRVTVQPGNAHRVAVNAAAPVSADSKGLACSMEVHCLSGSGEKCATFVLERTTEDQQKYILESMLQAHHMYNHPKEYEQKLLHIMEAKEIACTKREALDRELVALNDNLTRNKHKQKINNERKEELLKKLGGYSTENTGNPWQAIQEQQQRTAGENTKSRLPSPLGNRTCKDFDLVLFRMIKSRWLSPEQCDASSPANRVVQPYSKEDLAIQVSQLSGSRAAIWKALDSIDSWSYRVFDVQAAMSGDDYLSLSTQTHGGSLLITMYALLCMHDFLQKFKIDEQIALNWISAVEASYHGNPYHNSMHAADVLQITDFIITQGGLAKRCDLSDIQVFSALLAASIHDFDHPGINNNFHIKTGSYLATLYNDRSVLENLHVSSVFELMKNPAFNILASFSDEQHHEVRETMIEMVLATDMGSHGKYVASLKGKMQEHSSFTQTAEQNLCLAIALKMADISNCGRPLDIYLRWGAKVSDEFYQQGDRERNLGLECSPFMDRLQPSLAKSQIAFMNYIITPFFEQVAELLPDMRFAVALVEENKAYWANHDDS | soluble
MGSDKIHHHHHHMRSDLRIAIVANEKRGDGNIELRLQSKGYQVVTLTTPSSVMGFIYSDPPDVILMDLSSPDEAFLGIIRSLKDDFFFSTIPVIGMMPEPAAEFFDWDEYPLDDFVTFPLNFRELFTRIVLSLRRLRRVFDNNPLTRLPGNTSIQRAIEQTVGKPMAVCYVDINHFKQYNDVYGFAHGDEVLRMLGRIMSNAVKDAGDGFAGHIGGDDFVFIVPFDQAEVVAGRIIANFTAVVSELFNEEEKRNGFFLAHDRKGNEEKVPLMGVAIAIVPTDSPKIGHYAKVAEVAAELKTLAKQSHKSCFVVDRRKY | not soluble
MSLGTGRNGGRAIVATGLGQCCWDTLAVVDSYPSPDSKAEAAVWAEQAGGPTATALVALARLGIPCRFAGVVGDDDAGSRIRQALDSEGVDGAFLVTRRRGASQRAFIMIERGSGRRTIVWRRPTGDPLDPREVPDAFLAGSSLLLLDGLMADASLHAAGRARSLGIPVMVDAGRMRPGMLDITRQCDYVVAAEQFFLDLGWDRTPEHFRGLAADLGAPVVTVTLGAAGSLTWSGHEPFHVPAFTVDAVDTTGAGDVFHGGYGYGILQGWSVRETVVFASAMAAMKCRQVGAQQGIPRLPDVLEFLTRRTITVLSNPQTEGHHHHHH | soluble
SDVLASYSIFQELQLVHDTGYFSALPSLEETWQQTCLELERYLQTEPRRISETFGEDLDCFLHASPPPCIEESFRRLDPLLLPVEAAICEKSSAVDILLSRDKLLSETCLSLQPASSSLDSYTAVNQAQLNAVTSLTPPSSPELSRHLVKTSQTLSAVDGTVTLKLVAKKAALSSVKVRSLISAHGRDVSGVLHEAMSSRGTTGNTQVQSPSNATTATGVFPGLTILPST | soluble
MVSDEDELNLLVIVVDANPIWWGKQALKESQFTLSKCIDAVMVLGNSHLFMNRSNKLAVIASHIQESRFLYPGKNGRLGDFFGDPGNPPEFNPSGSKDGKYELLTSANEVIVEEIKDLMTKSDIKGQHTETLLAGSLAKALCYIHRMNKEVKDNQEMKSRILVIKAAEDSALQYMNFMNVIFAAQKQNILIDACVLDSDSGLLQQACDITGGLYLKVPQMPSLLQYLLWVFLPDQDQRSQLILPPPVHVDYRAACFCHRNLIEIGYVCSVCLSIFCNFSPICTTCETAFKISLPPVLKAKKKKLKVSA | not soluble
AAPDEITTAWPVNVGPLNPHLYTPNQMFAQSMVYEPLVKYQADGSVIPWLAKSWTHSEDGKTWTFTLRDDVKFSNGEPFDAEAAAENFRAVLDNRQRHAWLELANQIVDVKALSKTELQITLKSAYYPFLQELALPRPFRFIAPSQFKNHETMNGIKAPIGTGPWILQESKLNQYDVFVRNENYWGEKPAIKKITFNVIPDPTTRAVAFETGDIDLLYGNEGLLPLDTFARFSQNPAYHTQLSQPIETVMLALNTAKAPTNELAVREALNYAVNKKSLIDNALYGTQQVADTLFAPSVPYANLGLKPSQYDPQKAKALLEKAGWTLPAGKDIREKNGQPLRIELSFIGTDALSKSMAEIIRADMRQIGADVSLIGEEESSIYARQRDGRFGMIFHRTWGAPYDPHAFLSSMRVPSHADFQAQQGLADKPLIDKEIGEVLATHDETQRQALYRDILTRLHDEAVYLPISYISMMVVSKPELGNIPYAPIATEIPFEQIKPVKP | soluble
MSKLDLNALNELPKVDRILALAETNAELEKLDAEGRVAWALDNLPGEYVLSSSFGIQAAVSLHLVNQIRPDIPVILTDTGYLFPETYRFIDELTDKLKLNLKVYRATESAAWQEARYGKLWEQGVEGIEKYNDINKVEPMNRALKELNAQTWFAGLRREQSGSRANLPVLAIQRGVFKVLPIIDWDNRTIYQYLQKHGLKYHPLWDEGYLSVGDTHTTRKWEPGMAEEETRFFGLKRECGLHEGLEHHHHHH | soluble
MMCSTVISQLGFECHPIGKTLRIISPFTYCDDGEHVGAFIREVNGRYLVSDRCDALMNMEARGISLTKKRLDEIRQLLLKEGAELNARGEIIAWATEKDVGAITSNIIRAGILASTLSLDWYQPVQAEKFESMVIDYLYHTELRDALSLRENVYGLSGHQITVPVTIKTDIPKYVFTSSVKHGGSWNSAYSLLGKLIDLKASSEEYNNRFVVIDSEAIGDQMQQLSLLFHESSQVLPFSKRETWVKRLAA | not soluble
MSTKSIATSSTASSSSSHHQEHTVTELIMFFTSEEPPEPEPFSRSTEKSGIRTSKVITRTITISAETKLKMDLLEEQRREKRVKLEIEKSRIRAENLQRMQEISSEPKTRGSKRSLMRRAAKRTKGRISSLLIRDSSVDSGSITDKALKDKKRGLSLEWEVKDQGRFAESFSDSRLMEMFQHPSGMPIEPDVMMEGYLYKRSSNAFKTWNRRWFQIKDKQLLYSHRSTDLEPATIMEENLRICLVRPAPSNIDRIGCFELVTPTRIHLLQADSESLCQDWMRALQRTILALHEGDSVDVASTSPRNKTTSMSSGVTLTSANAISPLSNAMDVTKGRSVSDPASTYTSANTSSISTAAGFSSSTTAFEQVRRVPGNEVCADCGSPAPKWVSINLGVVLCIECSGAHRSLGVQTSKVRSLCMDSIDNELRDVLLALGNRQVNEIFLAHLPPADSIVPPQINEKSARPAREAWIKAKYVERRFAVAEDTRARSSATNRQEHLKHKTSIGGNSSSNGVNRSSSYADVQDAESGGLLDADPWSADLSVPVPTASKRLSACGSDTNLDAIGSSSIDTKTVEWDSVKEACECGDLLALMTAYAQGFDLNALHNGTTALHIATRNGQTAAVEFLLLNGAKINMLDEKLNTPLHLAAKEGHTLPVCQLLKRGADSNLANVDSKTPLDIAMECTHADIVTLFRVTIMRNDFNADFNNPMDETVEAVISDIARRAATEKEQKKTESLKSTSDI | not soluble
MGSDKIHHHHHHMCIMASCLSPNWSVFDIDQSQTLQVAVQEAHARSQPLAIRGGGSKTFYGRQTPACDLLDLGGHRGIIDYAPNELFITLRAGTSLQALEAQLAEAGQMLPFEPPHFGPAATIGGTLACGFSGPRRPYAGSARDMVLGMRILNGQGEILRFGGQVMKNVAGYDVSRLMVGALGTLGVLLEVSLKVLPRPDSTVTLVWPMDPVTAVQRMNDWAGQPLPLSATAYDGEHLYIRLSGTGSAVRAAQTRLGGERLPDAEAAAFWVALREQRNDFFQGDAPLWRLAVAPATPPLPLGDQTLIEWGGGQRWLRGALDATALRQLAAEHGGHATLFRGGNRRGEVFHPLAPPLLAMQQRLKAAFDPRGILNSGRLYATL | not soluble
MTEPWIAFPPEVHSAMLNYGAGVGPMLISATQNGELSAQYAEAASEVEELLGVVASEGWQGQAAEAFVAAYMPFLAWLIQASADCVEMAAQQHVVIEAYTAAVELMPTQVELAANQIKLAVLVATNFFGINTIPIAINEAEYVEMWVRAATTMATYSTVSRSALSAMPHTSPPPLILKSDELLPDTGEDSDEDGHNHGGHSHGGHARMIDNFFAEILRGVSAGRIVWDPVNGTLNGLDYDDYVYPGHAIWWLARGLEFFQDGEQFGELLFTNPTGAFQFLLYVVVVDLPTHIAQIATWLGQYPQLLSAALTGVIAHLGAITGLAGLSGLSAIPSAAIPAVVPELTPVAAAPPMLAVAGVGPAVAAPGMLPASAPAPAAAAGATAAGPTPPATGFGGFPPYLVGGGGPGIGFGSGQSAHAKAAASDSAAAESAAQASARAQARAARRGRSAAKARGHRDEFVTMDMGFDAAAPAPEHQPGARASDCGAGPIGFAGTVRKEAVVKAAGLTTLAGDDFGGGPTMPMMPGTWTHDQGVFDEHR | not soluble
MGSDKIHHHHHHMSGGSSMTDQGWAMKGELVLSCNCTVFCPCVLSLGNHAPTEGYCQTWAGFRIDAGHFGEVDLSGLNLGLIMEIPGYMSRGNWTAGLFIDKRASIYAVKALTKIFTGKAGGTTSLLSILVGKFLPITYETRDKMRIFQIPKIIDGAVTPIAGKDREKDTVITNSEYWIAPEIIVARSDKSKMRAFGRNWNFAGRSAEICKLDWRGP | not soluble
MGHHHHHHSHMGLSYQEELTLPFELCDVKSDIKLPLLLDYCLMVSGRQSAQLGRSNNNLLVDYKLVWIVTDYEITIHRLPHFQETIIIETKALSYNKFFCYRQFYIYDQEGGLLVDILAYFALLNPDTRKVATIPEDLVAPFETDFVKKLHRVPKMPLLEQSIDRDYYVRYFDIDMNGHVNNSKYLDWMYDVLGCEFLKTHQLLKMTLKYVKEVSPGGQITSSYHLDQLTSYHQIISDGQLNAQAMIEWRAIKPIESETD | not soluble
MGSDKIHHHHHHMRKLYILGMILGMYATFSACNDEWKDELYTQMLSFKAPLGDNGLSEIYVRYQPDGTGIYQLPVIVSGSKSNSRNIDAKIAVDEDTLRILNQEKFPVGRQDLWYVPLAEQHYSFESNICHIPAGENIQLYPIHFNFNGLELDEKYVLPLTIEEDPSYVQNKYKGRYKALLGVNLFNDYSGTYNTTLMNIYIEGTTTDPAKVDTRLARVVDENTIFFYAGSTWVEDENRSRYKVFVEFEEGTEDEEGTIKGKLRLYGDEGEPGINIRPLGECKYEKRIIQHETIKYMERHLTTLELSYKYTDVTSNPDYPITYEVKGSMTMERQINPLIPDEDQAIEW | not soluble
MHGEETPRTDLTLFSEKMQELKSRIASVIVGQERTVDLVLTAILANGHVLIEGVPGVAKTLLARLTARLIDADFSRVQFTPDLMPSDVLGTTVFNMKTNEFDFHRGPVFANIILVDEINRAPAKTQSALFEVMEERQASIDGTTYRMGELYTILATQNPVEQEGTYKLPEAQLDRFLMKITMDYPSLDEEINILERHHTNAALVKLEEIQPVITREELLSLRRLTEKVFVDRTLLQYIALIAQQTRTSKAVYLGASPRASVAMLQASKAYALLQGRDFVTPEDIKFVAPYVLQHRLILTAEAEMEGYSPVKVTQRLIDKVEVPKLEHHHHHH | soluble
